Test: Tissue distribution of fluorescently labeled polyamide
Format: in vivo
Settings: 7.5 mg/kg tail vein, mice
Method: On day 1 (24 hours), day 6 and day 21 after the intravenous injection, the mice were dissected, and each tissue of the livers, the spleens and the kidneys was collected and prepared into frozen sections, which were then fixed in 4% paraformaldehyde for 30 minutes.

CN(C)CCCNC(=O)CCNC(=O)c1cc(NC(=O)c2cc(NC(=O)CCNC(=O)c3nc(NC(=O)c4nc(NC(=O)CCCNC(=O)c5cc(NC(=O)c6cc(NC(=O)CCNC(=O)c7cc(NC(=O)c8cc(NC(=O)CCNC(=S)Nc9ccc(-c%10c%11ccc(=O)cc-%11oc%11cc(O)ccc%10%11)c(C(=O)O)c9)cn8C)cn7C)cn6C)cn5C)cn4C)cn3C)cn2C)cn1C [HMMP9NFκβ-FITC]
incorporation in the nuclei of liver and kidney cells (after 1 day): A large number
incorporation in the nuclei of spleen cells (after 1 day): also incorporated in the nuclei of spleen cells
FITC fluorescence in tissue (after 6 days): strong FITC fluorescence was observed
FITC fluorescence intensity in the cells of each tissue (after 21 days): remarkably attenuated
